Assay [1] concerns the target T1, 6×His tagged human SIRPα v2 ECD recombinant protein (human). Description: SPR (Biacore). On the procedure: (§1) Anti-SIRPα chimeric antibodies were characterized for binding affinity against human SIRPα v1, human SIRPα v2 and C57BL/6 mouse SIRPα using Biacore (GE). Briefly the antibodies to be tested were captured to CM5 chip (GE) using Human Antibody Capture Kit (GE). The antigens of 6×His tagged human SIRPα v1, human SIRPα v2 and C57BL/6 mouse SIRPα ECD recombinant proteins were serially diluted for multiple doses and injected at 30 μl/min for 180 s. Buffer flow was maintained for dissociation of 400 s. 3 M MgCl₂ was used for chip regeneration. The association and dissociation curves were fit with 1:1 binding model, and the Ka/Kd/KD values for each antibody were calculated.
(§2) hu035.01, the first version of humanized 035, was characterized by FACS assay using CHOK1-human SIRPα v1-1B4 cells, ELISA assay using Fc tagged human SIRPα v2 ECD recombinant protein and SPR analysis using the antigen of 6×His tagged human SIRPα v2 ECD recombinant protein (refer to methods described in Example 3.4, Example 3.3 and Example 4.3). […] In particular, hu035.01 cannot be detected to bind with C57BL/6 mouse SIRPα ECD in ELISA assay possibly due to reduced binding activity (FIG. 5B).
On the technique in general: Surface plasmon resonance follows binding to a sensor surface in real time, without labels.

Assay [2] concerns the target T2, 6×His tagged C57BL/6 mouse SIRPα ECD recombinant protein (mouse (C57BL/6), UniProt P97797 32-373).
T2 construct: extracellular domain; bought; also called mSIRPα (C57BL/6); mouse SIRPα (C57BL/6) ECD
T2 sequence: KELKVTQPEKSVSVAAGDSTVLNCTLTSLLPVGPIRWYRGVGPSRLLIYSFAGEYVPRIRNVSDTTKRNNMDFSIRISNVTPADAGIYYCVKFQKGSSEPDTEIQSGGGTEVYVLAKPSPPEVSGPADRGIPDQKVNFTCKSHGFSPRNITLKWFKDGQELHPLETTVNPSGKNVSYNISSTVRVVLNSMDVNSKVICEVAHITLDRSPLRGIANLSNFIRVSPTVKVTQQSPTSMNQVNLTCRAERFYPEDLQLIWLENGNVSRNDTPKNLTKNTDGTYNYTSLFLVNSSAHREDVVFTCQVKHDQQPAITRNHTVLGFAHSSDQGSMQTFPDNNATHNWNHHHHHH
Briefly: ELISA on coated mouse SIRPα (C57BL/6) ECD, antibody at 10, 1 and 0.1 ug/ml [right panel mSIRPα ECD (C57BL/6]. Background: ELISA stands for enzyme-linked immunosorbent assay.

In assay [3] the target is T1, 6×His tagged human SIRPα v2 ECD …. Description: SPR (Biacore), antibody captured, 6×His tagged human SIRPα v2 ECD as analyte. Here is the method:
as §1, §2

The target in assay [4] is T3, full length human SIRPα v1 stably expressed on CHOK1 cells (human, UniProt P78324 31-504).
T3 construct: whole, on cells; also called CHOK1-human SIRPα v1-1B4 cells; CHOK1-human SIRPα v1
Briefly: FACS on CHOK1-human SIRPα v1-1B4 cells. On the procedure:
(§3) Species cross reactivity of the purified hybridoma antibodies against human, cyno and mouse SIRPα was determined by FACS assay using CHOK1-human SIRPα v1-1B4 cells, CHOK1-cyno SIRPα-2A2 cells, and CHOK1-C57BL/6 mouse SIRPα-2.22 cells, which stably expressing SIRPα protein. Briefly the antibodies were incubated with 2×10⁵ target cells at 4° C. for 1 hour. After washing, fluorescence labeled anti-mouse or anti-human IgG 2nd antibody (Life Technologies) was added and incubated at 4° C. for 1 hour. Geometric median fluorescence intensity was detected and EC₅₀ was calculated. In particular, it is noted, in contrast to the other antibodies tested in the same experiment, 060 cannot bind with cyno SIRPα and 035 has cross reactivity against C57BL/6 mouse SIRPα.
as §2

The target of assay [5] is T4, 6×His tagged human SIRPα v1 ECD recombinant protein (human, UniProt P78324 31-373).
T4 construct: extracellular domain; bought; also called hSIRPα V1 (SPR antigen)
Briefly: SPR (Biacore).

For assay [6], the target named is T2, 6×His tagged C57BL/6 mouse SIRPα ECD …. Briefly: SPR (Biacore).
For assay [7], the target named is T1, 6×His tagged human SIRPα v2 ECD …. Briefly: SPR (Biacore). The source holds these as a separate data set.
In assay [8] the target is T4, 6×His tagged human SIRPα v1 ECD …. Description: SPR (Biacore), antibody captured. Here is the method:
as §1

Assay [9] has as its target T2, 6×His tagged C57BL/6 mouse SIRPα ECD …. Briefly: SPR (Biacore), antibody captured. On the procedure: as §1
Assay [10] has as its target T1, 6×His tagged human SIRPα v2 ECD …. Description: SPR (Biacore), antibody captured. On the procedure: as §1
Assay [11] concerns the target T2, 6×His tagged C57BL/6 mouse SIRPα ECD …. Description: ELISA on coated mouse SIRPα (C57BL/6) ECD [Continued) F].
For assay [12], the target named is T5, biotin labeled soluble human SIRPα v1 ECD recombinant protein (human, UniProt P78324 31-373, biotin labeled).
T5 construct: extracellular domain
Description: competitive ELISA, hSIRPα/CD47 blocking.

Assay [13] concerns the target T6, Fc tagged human SIRPβ ECD recombinant protein (human, UniProt O00241 30-371).
T6 construct: range 1-371; cloned range includes the signal peptide; also called hSIRPβ; not shown: human IgG Fc region (hFc) of the pCPC vector
Description: ELISA.

Assay [14] has as its target T7, Fc tagged human SIRPα v2 ECD recombinant protein (human).
T7 construct: range 1-369; cloned range M1-R369 includes the signal peptide; also called hSIRPα V2
Briefly: ELISA.

The target in assay [15] is T8, 6×His tagged human SIRPα v8 ECD recombinant protein (human).
T8 construct: extracellular domain; bought; also called hSIRPα V8
Briefly: ELISA.

The target in assay [16] is T9, Fc tagged human SIRPα v1 ECD recombinant protein (human, UniProt P78324 31-370).
T9 construct: range 1-370; cloned range M1-R370 includes the signal peptide; also called hSIRPα V1; not shown: human IgG Fc region (hFc) of the pCPC vector
Description: ELISA.

Assay [17] has as its target T10, Fc tagged human SIRPγ ECD recombinant protein (human, UniProt Q9P1W8 29-360).
T10 construct: range 1-360; cloned range includes the signal peptide; also called hSIRPγ; not shown: human IgG Fc region (hFc) of the pCPC vector
Description: ELISA.

For assay [18], the target named is T3, full length human SIRPα v1 stably …. Briefly: FACS on CHOK1 cells. On the procedure:
as §3

Assay [19] addresses T11, full length C57BL/6 mouse SIRPα stably expressed on CHOK1 cells (mouse (C57BL/6), UniProt P97797 32-513).
T11 construct: whole, on cells; also called CHOK1-C57BL/6 mouse SIRPα-2.22 cells
T11 sequence (looked up): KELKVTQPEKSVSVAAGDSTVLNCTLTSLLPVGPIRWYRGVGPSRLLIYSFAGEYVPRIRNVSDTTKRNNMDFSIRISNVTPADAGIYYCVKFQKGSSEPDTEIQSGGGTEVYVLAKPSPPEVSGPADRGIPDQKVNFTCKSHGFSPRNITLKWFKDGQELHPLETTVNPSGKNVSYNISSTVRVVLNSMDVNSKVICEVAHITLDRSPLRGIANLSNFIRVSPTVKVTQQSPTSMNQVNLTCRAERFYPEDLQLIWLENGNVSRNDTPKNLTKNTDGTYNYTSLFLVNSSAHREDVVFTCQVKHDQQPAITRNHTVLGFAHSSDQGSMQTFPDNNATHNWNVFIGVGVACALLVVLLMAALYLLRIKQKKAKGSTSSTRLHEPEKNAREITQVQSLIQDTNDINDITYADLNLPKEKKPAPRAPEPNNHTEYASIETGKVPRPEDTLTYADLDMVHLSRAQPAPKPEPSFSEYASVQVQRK
Description: FACS on CHOK1 cells. Here is the method: as §3

The target in assay [20] is T12, full length cyno SIRPα stably expressed on CHOK1 cells (cynomolgus monkey, UniProt A0A2K5VYQ9 31-507).
T12 construct: whole, on cells; also called CHOK1-cyno SIRPα-2A2 cells; CHOK1-cyno SIRPα
T12 sequence: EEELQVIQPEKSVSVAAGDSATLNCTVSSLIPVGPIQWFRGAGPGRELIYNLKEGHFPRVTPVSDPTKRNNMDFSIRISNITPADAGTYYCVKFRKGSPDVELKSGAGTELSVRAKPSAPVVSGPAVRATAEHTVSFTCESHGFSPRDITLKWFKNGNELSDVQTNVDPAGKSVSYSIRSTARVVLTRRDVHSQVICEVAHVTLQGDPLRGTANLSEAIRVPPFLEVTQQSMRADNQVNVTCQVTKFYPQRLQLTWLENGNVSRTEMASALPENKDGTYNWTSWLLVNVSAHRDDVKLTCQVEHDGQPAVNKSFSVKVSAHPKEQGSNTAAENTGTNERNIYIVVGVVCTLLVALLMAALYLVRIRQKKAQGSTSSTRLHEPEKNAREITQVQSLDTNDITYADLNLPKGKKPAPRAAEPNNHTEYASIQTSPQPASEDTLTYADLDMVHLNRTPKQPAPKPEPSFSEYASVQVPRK
Briefly: FACS on CHOK1 cells. Here is the method: as §3

T1 sequence (chain, as listed by the source): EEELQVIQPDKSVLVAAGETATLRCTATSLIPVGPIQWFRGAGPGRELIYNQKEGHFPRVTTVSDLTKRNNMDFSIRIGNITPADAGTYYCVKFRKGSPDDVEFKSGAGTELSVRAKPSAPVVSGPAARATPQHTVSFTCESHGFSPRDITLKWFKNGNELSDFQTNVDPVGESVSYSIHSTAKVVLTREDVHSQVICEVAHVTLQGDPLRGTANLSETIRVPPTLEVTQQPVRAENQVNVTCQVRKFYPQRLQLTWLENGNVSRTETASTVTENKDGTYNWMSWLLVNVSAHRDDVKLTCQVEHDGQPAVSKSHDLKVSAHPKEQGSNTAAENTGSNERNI
T4 sequence (P78324 other isoform, or with tags, fused parts or gaps): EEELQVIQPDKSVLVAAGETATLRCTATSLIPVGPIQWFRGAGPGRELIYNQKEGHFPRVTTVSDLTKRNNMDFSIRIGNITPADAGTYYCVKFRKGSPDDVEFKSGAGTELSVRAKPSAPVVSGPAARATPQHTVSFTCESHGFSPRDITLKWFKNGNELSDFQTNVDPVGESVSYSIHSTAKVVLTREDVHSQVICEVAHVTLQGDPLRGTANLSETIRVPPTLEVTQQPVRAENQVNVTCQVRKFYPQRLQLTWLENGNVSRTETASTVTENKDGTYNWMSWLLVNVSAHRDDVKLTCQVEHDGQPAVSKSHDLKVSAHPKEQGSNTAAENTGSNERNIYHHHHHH
T9 sequence (P78324 31-370 limits assumed): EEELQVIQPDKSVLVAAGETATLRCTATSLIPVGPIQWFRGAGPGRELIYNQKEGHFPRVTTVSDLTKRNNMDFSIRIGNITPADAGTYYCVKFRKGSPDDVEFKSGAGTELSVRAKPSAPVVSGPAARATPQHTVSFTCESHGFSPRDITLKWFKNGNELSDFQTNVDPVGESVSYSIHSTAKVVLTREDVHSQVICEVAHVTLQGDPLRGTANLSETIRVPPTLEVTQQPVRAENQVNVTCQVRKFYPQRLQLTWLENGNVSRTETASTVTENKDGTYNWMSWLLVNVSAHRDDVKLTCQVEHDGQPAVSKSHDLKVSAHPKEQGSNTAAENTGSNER
T5 sequence (P78324 31-373): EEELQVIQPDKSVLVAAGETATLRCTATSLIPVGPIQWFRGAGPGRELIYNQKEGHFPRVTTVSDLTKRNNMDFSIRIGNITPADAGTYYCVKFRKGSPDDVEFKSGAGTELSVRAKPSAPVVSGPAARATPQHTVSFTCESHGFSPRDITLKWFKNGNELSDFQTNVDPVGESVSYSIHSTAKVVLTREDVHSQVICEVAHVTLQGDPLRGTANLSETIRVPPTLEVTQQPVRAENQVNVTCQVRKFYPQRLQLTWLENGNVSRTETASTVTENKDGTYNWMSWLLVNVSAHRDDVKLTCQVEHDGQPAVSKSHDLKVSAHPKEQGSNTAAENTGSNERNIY
T10 sequence (Q9P1W8 29-360 limits assumed, form in doubt): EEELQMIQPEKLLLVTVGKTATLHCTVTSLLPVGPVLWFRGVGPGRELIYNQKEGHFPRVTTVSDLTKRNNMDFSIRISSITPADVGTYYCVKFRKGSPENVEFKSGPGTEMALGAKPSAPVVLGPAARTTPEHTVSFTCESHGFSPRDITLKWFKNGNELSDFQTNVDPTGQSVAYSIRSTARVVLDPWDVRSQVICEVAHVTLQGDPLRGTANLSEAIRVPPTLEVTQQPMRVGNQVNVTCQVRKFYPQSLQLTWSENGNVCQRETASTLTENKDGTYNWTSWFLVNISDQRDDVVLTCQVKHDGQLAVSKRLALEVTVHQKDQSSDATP
T6 sequence (O00241 30-371 limits assumed, form in doubt): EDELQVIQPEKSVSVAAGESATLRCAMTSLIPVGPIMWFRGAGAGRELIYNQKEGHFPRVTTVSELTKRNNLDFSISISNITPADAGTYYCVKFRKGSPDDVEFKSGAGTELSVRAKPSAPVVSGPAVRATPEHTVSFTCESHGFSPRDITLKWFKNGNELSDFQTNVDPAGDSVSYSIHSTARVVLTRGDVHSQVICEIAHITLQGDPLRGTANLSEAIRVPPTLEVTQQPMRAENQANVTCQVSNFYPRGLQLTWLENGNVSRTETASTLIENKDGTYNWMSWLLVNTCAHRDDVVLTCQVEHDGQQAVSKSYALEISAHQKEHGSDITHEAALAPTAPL

B1: humanized antibody hu035.01 (antibody, V domains shown)
VH: QIQLVQSGSELKKPGASVKVSCKASGYTFTNYAMNWVRQAPGQGLEWMGWINTYTGEPTYAQGFKGRFVFSLDTSVSTAYLQISSLKAEDTAVYYCARTRGYYDFDGGAFDYWGQGTLVTVSS
VL: DIQMTQSPSSLSASVGDRVTITCRASQNVGTHLAWFQQKPGKAPKSLIYSASYRYIGVPSRFSGSGSGTDFTLTISSLQPEDFATYYCQQYNTYPLTFGQGTKLEIK
notes: first humanized version of 035 (CDR graft on VH7-4-1 / VK1-16)
Consider B1, for which the Kd (commonly the concentration at which binding is half-saturated) in [1] amounted to 53.4 nM. In addition, the binding result in [2] is “no binding (tested: 10 ug/ml)”. Also, in assay [3], the koff (in general, the rate constant with which the complex falls apart) is 0.00065 s⁻¹ and the kon (usually the second-order rate constant of association) is 12200 M⁻¹ s⁻¹. Also, the EC50 (read off the curve) (in general, the concentration that produces a half-maximal response) in assay [4] was roughly 0.5 µg/mL.

B2: humanized antibody hu035.17 (antibody, V domains shown)
VH: QIQLVQSGSELKKPGASVKVSCRARGYTLTDYAMNWVRQAPGQGLEWMGFINTYTGEPTYAQGFKGRFVFSLDTSVSTAYLQIGSLKAEDTAVYYCARTRGYYDFDGGAFDYWGQGTLVTVSS
VL: DIQMTQSPSSLSASVGDRVTITCRASQNVGTHLAWYQQKPGKAPKSLIYSAIYRYIGVPSRFSGSGSGTDFTLTISSLQPEDFATYFCQQYNTYPLTFDQGTKLEIKR
Take B2: the Kd was 0.86 nM in assay [5]; 25.9 nM in assay [6]; 1.43 nM in assay [7]; 0.86 nM in assay [8]; 25.9 nM in [9]; 2.17 nM in assay [10]. Further, the koff came out at 0.00012 s⁻¹ in [8], 0.0015 s⁻¹ in [9] and 0.000191 s⁻¹ in [10]. For the same molecule, the kon in assay [8] came out at 140000 M⁻¹ s⁻¹; in [9], 57900 M⁻¹ s⁻¹; in [10], 88300 M⁻¹ s⁻¹. In assay [11], the “EC50 (read off the curve)” value was roughly 0.04 µg/mL. The concentration for half-maximal inhibition (IC50) (commonly the concentration needed to halve the response being measured) in [12] worked out at 1.22 nM. In addition, the EC50 (as a rule, the concentration needed to bring the measured effect to its halfway point) was determined as 0.15 nM in assay [13]; 0.15 nM in assay [14]; 0.26 nM in assay [15]; 0.18 nM in assay [16]; 0.54 nM in assay [17]; 1.15 nM in assay [18]. In addition, in assay [20], the EC50 turned out to be 0.24 nM. For the same molecule, the “MFI at 2 ug/ml” value in [19] is 1120 MFI.

B3: humanized antibody hu035.10 (antibody, V domains shown)
VH: QIQLVQSGSELKKPGASVKVSCRARGYTLTDYAMNWVRQAPGQGLEWMGFINTYTGEPTYAQGFKGRFVFSLDTSVSTAYLQIGSLKAEDTAVYYCARTRGYYDFDGGAFDYWGQGTLVTVSS
VL: DIQMTQSPSSLSASVGDRVTITCRASQNVGTHLAWYQQKPGKSPKALIFSAIYRYIGVPSRFSGSGSGTDFTLTISNLQPEDFATYYCQQYNTYPLTFGQGTKLEIK
Take B3: the Kd in assay [5] turned out to be 3.82 nM; in assay [6], 33.8 nM; in assay [7] it was 2.15 nM; in assay [8], 3.82 nM; in [9], 33.8 nM; in [10], 1.64 nM. Moreover, the koff in assay [8] was 0.000238 s⁻¹; in assay [9], 0.00152 s⁻¹; in [10], 0.00017 s⁻¹. In addition, the kon was 62100 M⁻¹ s⁻¹ in [8], 45000 M⁻¹ s⁻¹ in assay [9] and 104000 M⁻¹ s⁻¹ in [10]. Further, in assay [11], the “EC50 (read off the curve)” value was roughly 0.04 µg/mL. In addition, the IC50 in assay [12] was 1.49 nM. In addition, the concentration giving a half-maximal response (EC50) worked out at 0.19 nM in assay [13]; 0.16 nM in assay [14]; 0.18 nM in [15]; 0.19 nM in [16]; 0.34 nM in [17]; 1.44 nM in assay [18]. The EC50 in [20] turned out to be 0.33 nM. In addition, in assay [19], the “MFI at 2 ug/ml” value amounted to 1110 MFI.
